According to patent publication US20140050720A1, “ULTRALONG COMPLEMENTARITY DETERMINING REGIONS AND USES THEREOF” (THE SCRIPPS RESEARCH INSTITUTE, priority 2012, published 2014):

Experiments:
[1] = Pharmacokinetics of BLV1H12-bGCSF fusion antibodies in mice; assay type: in vivo; details: BALB/c mice, 70 μg injected
Protocol: For PK study in mice, 70 μg of the immunoglobulin constructs described herein were injected into 3 BALB/c mice per group. Blood samples were drawn from time 0 to 14 days with extended intervals and analyzed by ELISA using anti-human IgG Fc antibody with horseradish peroxidase (HRP) labeled (KPL) and anti-6×His antibody with HRP labeled (Clontech). Data were normalized by taking maximal concentration at the first time point (30 min).

TF-1 cells = experiment: Proliferation assay on TF-1 cells (AlamarBlue); assay type: cell-based; details: 72 h
Protocol: TF-1 cells were obtained from American Type Culture Collection (ATCC), VA, and cultured in RPMI-1640 medium supplemented with 10% fetal bovine serum (FBS), penicillin, streptomycin and 2 ng/mL granulocyte-macrophage colony-stimulating factor (GM-CSF). For proliferation assay, TF-1 cells were washed three times with RPMI-1640 medium and resuspended in RPMI-1640 medium with 10% FBS and penicillin and streptomycin at a density of 1.5×10^5 cells/ml. Cells were plated in 96-well plates and treated with varied concentrations of BLV1H12-hEPO fusion antibodies. After 72 h of incubation at 37° C. with 5% CO2, cells viabilities were measured using AlamarBlue (Invitrogen) assay following manufacture's instruction. FIG. 21 and Table 18 show the proliferative activity of Ab-hEPO fusion antibodies on TF1 cells.

Parental U2OS = experiment: Flow cytometry binding to parental cells; details: cell culture supernatant containing expressed IgG, anti-Human Fc detection
Protocol: (§1) Briefly, a cell line expressing functionally validated CXCR1 derived from U2OS cells was obtained from DiscoveRx and cultured per manufacturer's instructions (Cat#93-0226C3, DiscoveRx Corporation, Freemont, Calif.). The parental cell line U20S was obtained from ATCC and cultured under the same conditions as the CXCR1 cells. Cell culture supernatants from Example 2 above were then tested for binding to cells by flow cytometry. The adherent U20S or CXCR1-U20S cells were dissociated with Accutase (Innovative Cell Technologies, Inc., San Diego, Calif.), neutralized with an equal volume of media containing 10% serum, centrifuged at 1000 g, and resuspended in PBS with 2% BSA. Next, cells were dispensed into microtiter plates to achieve between 30,000 to 300,000 cells per well, centrifuged again, and resuspended in cell culture supernatant containing expressed IgG, or a dilution of IgG-containing cell culture supernatant. A fluorescent-conjugated anti-Human Fc antibody was used to detect binding of the expressedBLV1H12-IL8 fusion proteins to cells.

[2] = system: human peripheral blood mononuclear cells (PBMCs); experiment: Inhibition of human PBMC activation (secreted TNF-α ELISA); assay type: cell-based; details: PBMCs activated by anti-CD3 and CD28 antibodies, 24 h
Protocol: Human PBMCs were isolated from fresh venous blood of healthy donors through ficoll gradient centrifugation, followed by resuspension in RPMI1640 medium with 10% FBS and plating in 96-well plates at a density of 1×10^6 cells/mL. Human T cells were purified from the isolated PBMCs using T cell enrichment kit. Purified PBMCs and T cells were pretreated for 1 h at 37° C. with 5% CO2 with various concentrations of purified BLV1H12-Moka1 fusion antibodies and then activated by anti-CD3 and CD28 antibodies. After 24 h treatment, supernatant was collected for measurement of the levels of secreted TNF-α using ELISA kit.

GLP-1 receptor (GLP-1R) = target: T1, GLP-1 receptor (GLP-1R) (Homo sapiens, UniProt P43220); experiment: GLP-1R activation, cAMP responsive luciferase reporter in HEK293 cells; assay type: cell-based; details: HEK293 cells expressing GLP-1R, 24 h
T1 construct: expressed in transfected cells; host or cells: HEK293 cells expressing surface GLP-1R and a cAMP responsive luciferase reporter
T1 sequence (P43220 24-463, species assumed): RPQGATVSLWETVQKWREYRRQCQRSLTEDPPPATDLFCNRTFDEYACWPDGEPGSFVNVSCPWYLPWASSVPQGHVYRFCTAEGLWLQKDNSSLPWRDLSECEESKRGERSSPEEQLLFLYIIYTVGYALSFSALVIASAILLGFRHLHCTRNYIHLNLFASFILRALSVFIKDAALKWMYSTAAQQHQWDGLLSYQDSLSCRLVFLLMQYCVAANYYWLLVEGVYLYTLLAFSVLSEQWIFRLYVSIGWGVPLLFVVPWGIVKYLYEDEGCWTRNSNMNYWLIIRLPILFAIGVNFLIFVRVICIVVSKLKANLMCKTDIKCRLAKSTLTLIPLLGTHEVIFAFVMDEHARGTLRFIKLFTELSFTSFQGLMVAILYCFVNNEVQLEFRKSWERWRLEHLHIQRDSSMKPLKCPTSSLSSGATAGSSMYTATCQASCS
Protocol: HEK293 cells expressing surface GLP-1R and cAMP responsive luciferase reporter gene were seeded in 384 well plates at a density of 5000 cells per well. […] Subsequently, luciferase assay was performed using One-Glo luciferase reagent according manufacture's instruction (Promega).
HEK293 cells expressing surface GLP-1R and cAMP responsive luciferase reporter gene were seeded in 384 well plates at a density of 5000 cells per well. After 24 h incubation at 37° C. with 5% CO2, cells were treated with various concentrations of peptides and BLV1H12-GLP-1 clip fusion proteins and incubated for another 24 h. Subsequently, luciferase assay was performed using One-Glo luciferase reagent according manufacture's instruction (Promega).

CXCR1-U2OS = target: T2, CXCR1-U2OS (Homo sapiens, UniProt P25024); experiment: Flow cytometry binding to CXCR1 expressing cells; details: CXCR1-U2OS cells, cell culture supernatant containing expressed IgG, anti-Human Fc detection
T2 construct: host or cells: U2OS-derived CXCR1 cell line, purchased
T2 sequence (P25024 1-350): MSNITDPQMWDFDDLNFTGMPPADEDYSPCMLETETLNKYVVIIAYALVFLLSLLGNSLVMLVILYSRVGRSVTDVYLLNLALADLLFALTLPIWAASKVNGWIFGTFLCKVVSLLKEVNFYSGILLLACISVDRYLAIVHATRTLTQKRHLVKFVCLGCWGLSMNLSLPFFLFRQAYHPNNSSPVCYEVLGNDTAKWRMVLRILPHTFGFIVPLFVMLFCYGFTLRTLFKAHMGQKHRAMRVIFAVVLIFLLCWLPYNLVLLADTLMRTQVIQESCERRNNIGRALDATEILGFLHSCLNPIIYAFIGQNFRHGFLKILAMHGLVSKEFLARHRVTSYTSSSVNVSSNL
Protocol: as §1

B1: Ab: bovine BLV1H12 antibody with ultralong CDR3, no inserted polypeptide; heavy chain SEQ ID NO: 24, light chain SEQ ID NO: 23 (antibody)
heavy: QVQLRESGPSLVKPSQTLSLTCTASGFSLSDKAVGWVRQAPGKALEWLGSIDTGGNTGYNPGLKSRLSITKDNSKSQVSLSVSSVTTEDSATYYCTSVHQETKKYQSCPDGYRERSDCSNRPACGTSDCCRVSVFGNCLTTLPVSYSYTYNYEWHVDVWGQGLLVTVSS
light: QAVLNQPSSVSGSLGQRVSITCSGSSSNVGNGYVSWYQLIPGSAPRTLIYGDTSRASGVPDRFSGSRSGNTATLTISSLQAEDEADYFCASAEDSSSNAVFGSGTTLTVLGQPKSPPSVTLFPPSTEELNGNKATLVCLISDFYPGSVTVVWKADGSTITRNVETTRASKQSNSKYAASSYLSLTSSDWKSKGSYSCEVTHEGSTVTKTVKPSECS
- Percentage (normalized to maximal concentration at the first time point, 30 min) ([1]; day 0.021): 100.00%
- Percentage (normalized to maximal concentration at the first time point, 30 min) ([1]; day 0.042): 106.09%
- Percentage (normalized to maximal concentration at the first time point, 30 min) ([1]; day 0.083): 95.88%
- Percentage (normalized to maximal concentration at the first time point, 30 min) ([1]; day 0.125): 86.54%
- Percentage (normalized to maximal concentration at the first time point, 30 min) ([1]; day 0.250): 74.26%
- Percentage (normalized to maximal concentration at the first time point, 30 min) ([1]; day 1.000): 52.43%
- Percentage (normalized to maximal concentration at the first time point, 30 min) ([1]; day 2.000): 39.46%
- Percentage (normalized to maximal concentration at the first time point, 30 min) ([1]; day 3.000): 36.97%
- Percentage (normalized to maximal concentration at the first time point, 30 min) ([1]; day 8.000): 45.44%
- Percentage (normalized to maximal concentration at the first time point, 30 min) ([1]; day 10.000): 40.98%
- Percentage (normalized to maximal concentration at the first time point, 30 min) ([1]; day 14.000): 51.96%
- F.I. (AlamarBlue, cell viability) (TF-1 cells; 0.00236 nM): 4274.07
- F.I. (AlamarBlue, cell viability) (TF-1 cells; 0.01178 nM): 4267.586
- F.I. (AlamarBlue, cell viability) (TF-1 cells; 0.05888 nM): 3905.529
- F.I. (AlamarBlue, cell viability) (TF-1 cells; 0.2944 nM): 4091.452
- F.I. (AlamarBlue, cell viability) (TF-1 cells; 1.472 nM): 4109.106
- F.I. (AlamarBlue, cell viability) (TF-1 cells; 7.36 nM): 4071.234
- F.I. (AlamarBlue, cell viability) (TF-1 cells; 36.8 nM): 4100.011
- F.I. (AlamarBlue, cell viability) (TF-1 cells; 184 nM): 4413.497
- F.I. (AlamarBlue, cell viability) (TF-1 cells; 4.71E−04 nM): 4223.257
- F.I. (AlamarBlue, cell viability) (TF-1 cells; 9.42E−05 nM): 4108.119
- Median Arbitrary Fluorescence Units (AFU) (Parental U2OS): 4 AFU
- F.I. (secreted TNF-α, ELISA) ([2]; 2 nM): 2334
- F.I. (secreted TNF-α, ELISA) ([2]; 20 nM): 2186
- F.I. (secreted TNF-α, ELISA) ([2]; 200 nM): 1982
- F.I. (secreted TNF-α, ELISA) ([2]; 400 nM): 1733
- RLU (luciferase reporter) (GLP-1 receptor (GLP-1R); 1.26953 nM): 5200
- RLU (luciferase reporter) (GLP-1 receptor (GLP-1R); 2.53906 nM): 5000
- RLU (luciferase reporter) (GLP-1 receptor (GLP-1R); 5.07813 nM): 5600
- RLU (luciferase reporter) (GLP-1 receptor (GLP-1R); 10.15625 nM): 5500
- RLU (luciferase reporter) (GLP-1 receptor (GLP-1R); 20.3125 nM): 5380
- RLU (luciferase reporter) (GLP-1 receptor (GLP-1R); 40.625 nM): 4600
- RLU (luciferase reporter) (GLP-1 receptor (GLP-1R); 81.25 nM): 6140
- RLU (luciferase reporter) (GLP-1 receptor (GLP-1R); 162.5 nM): 5760
- RLU (luciferase reporter) (GLP-1 receptor (GLP-1R); 325 nM): 5600
- RLU (luciferase reporter) (GLP-1 receptor (GLP-1R); 650 nM): 5800
- RLU (luciferase reporter) (GLP-1 receptor (GLP-1R); 1300 nM): 14000
- Median Arbitrary Fluorescence Units (AFU) (CXCR1-U2OS): 4 AFU
